# Laboratory results as given in IntAct's records for PubMed 25966461.
# B1: Serine/threonine-protein kinase CBK1 (Saccharomyces cerevisiae), P53894 (parent)
# chain: MYNSSTNHHEGAPTSGHGYYMSQQQDQQHQQQQQYANEMNPYQQIPRPPAAGFSSNYMKEQGSHQSLQEHLQRETGNLGSGFTDVPALNYPATPPPHNNYAASNQMINTPPPSMGGLYRHNNNSQSMVQNGNGSGNAQLPQLSPGQYSIESEYNQNLNGSSSSSPFHQPQTLRSNGSYSSGLRSVKSFQRLQQEQENVQVQQQLSQAQQQNSRQQQQQLQYQQQQQQQQQQQHMQIQQQQQQQQQQQQSQSPVQSGFNNGTISNYMYFERRPDLLTKGTQDKAAAVKLKIENFYQSSVKYAIERNERRVELETELTSHNWSEERKSRQLSSLGKKESQFLRLRRTRLSLEDFHTVKVIGKGAFGEVRLVQKKDTGKIYAMKTLLKSEMYKKDQLAHVKAERDVLAGSDSPWVVSLYYSFQDAQYLYLIMEFLPGGDLMTMLIRWQLFTEDVTRFYMAECILAIETIHKLGFIHRDIKPDNILIDIRGHIKLSDFGLSTGFHKTHDSNYYKKLLQQDEATNGISKPGTYNANTTDTANKRQTMVVDSISLTMSNRQQIQTWRKSRRLMAYSTVGTPDYIAPEIFLYQGYGQECDWWSLGAIMYECLIGWPPFCSETPQETYRKIMNFEQTLQFPDDIHISYEAEDLIRRLLTHADQRLGRHGGADEIKSHPFFRGVDWNTIRQVEAPYIPKLSSITDTRFFPTDELENVPDSPAMAQAAKQREQMTKQGGSAPVKEDLPFIGYTYSRFDYLTRKNAL
# partner: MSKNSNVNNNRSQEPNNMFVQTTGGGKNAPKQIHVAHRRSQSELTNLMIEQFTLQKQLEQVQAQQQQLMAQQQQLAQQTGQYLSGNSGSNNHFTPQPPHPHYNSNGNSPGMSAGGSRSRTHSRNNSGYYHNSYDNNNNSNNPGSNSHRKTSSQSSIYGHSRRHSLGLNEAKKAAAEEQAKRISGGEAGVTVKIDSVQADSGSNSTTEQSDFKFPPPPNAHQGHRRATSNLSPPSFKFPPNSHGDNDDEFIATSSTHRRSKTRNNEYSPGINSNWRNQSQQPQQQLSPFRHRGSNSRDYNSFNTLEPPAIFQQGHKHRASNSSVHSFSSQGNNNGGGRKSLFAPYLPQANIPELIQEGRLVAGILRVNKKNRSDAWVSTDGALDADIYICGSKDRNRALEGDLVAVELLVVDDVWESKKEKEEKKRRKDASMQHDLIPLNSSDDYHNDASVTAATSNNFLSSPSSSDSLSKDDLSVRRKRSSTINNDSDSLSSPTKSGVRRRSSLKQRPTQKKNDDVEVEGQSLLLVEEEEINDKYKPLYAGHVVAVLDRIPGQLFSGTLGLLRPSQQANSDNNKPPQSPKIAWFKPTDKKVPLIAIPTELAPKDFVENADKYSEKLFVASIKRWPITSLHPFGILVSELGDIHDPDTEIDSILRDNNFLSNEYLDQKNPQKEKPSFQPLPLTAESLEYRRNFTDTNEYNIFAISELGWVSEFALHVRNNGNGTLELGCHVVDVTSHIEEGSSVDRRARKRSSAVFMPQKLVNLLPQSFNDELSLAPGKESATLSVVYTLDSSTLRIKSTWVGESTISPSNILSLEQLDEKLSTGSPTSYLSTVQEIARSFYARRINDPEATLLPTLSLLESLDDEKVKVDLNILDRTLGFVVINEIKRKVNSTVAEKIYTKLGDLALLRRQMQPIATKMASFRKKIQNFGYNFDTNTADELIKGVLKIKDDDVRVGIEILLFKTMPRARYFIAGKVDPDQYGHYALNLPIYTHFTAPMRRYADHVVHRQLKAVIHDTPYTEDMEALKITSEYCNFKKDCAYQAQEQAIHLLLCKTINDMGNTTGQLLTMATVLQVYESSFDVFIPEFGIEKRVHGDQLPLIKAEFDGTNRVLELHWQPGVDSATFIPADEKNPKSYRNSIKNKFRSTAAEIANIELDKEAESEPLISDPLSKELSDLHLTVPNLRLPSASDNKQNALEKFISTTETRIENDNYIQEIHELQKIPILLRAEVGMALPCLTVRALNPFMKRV
# B2: Metallothionein expression activator (Saccharomyces cerevisiae), P21192 (parent)
# chain: MDNVVDPWYINPSGFAKDTQDEEYVQHHDNVNPTIPPPDNYILNNENDDGLDNLLGMDYYNIDDLLTQELRDLDIPLVPSPKTGDGSSDKKNIDRTWNLGDENNKVSHYSKKSMSSHKRGLSGTAIFGFLGHNKTLSISSLQQSILNMSKDPQPMELINELGNHNTVKNNNDDFDHIRENDGENSYLSQVLLKQQEELRIALEKQKEVNEKLEKQLRDNQIQQEKLRKVLEEQEEVAQKLVSGATNSNSKPGSPVILKTPAMQNGRMKDNAIIVTTNSANGGYQFPPPTLISPRMSNTSINGSPSRKYHRQRYPNKSPESNGLNLFSSNSGYLRDSELLSFSPQNYNLNLDGLTYNDHNNTSDKNNNDKKNSTGDNIFRLFEKTSPGGLSISPRINGNSLRSPFLVGTDKSRDDRYAAGTFTPRTQLSPIHKKRESVVSTVSTISQLQDDTEPIHMRNTQNPTLRNANALASSSVLPPIPGSSNNTPIKNSLPQKHVFQHTPVKAPPKNGSNLAPLLNAPDLTDHQLEIKTPIRNNSHCEVESYPQVPPVTHDIHKSPTLHSTSPLPDEIIPRTTPMKITKKPTTLPPGTIDQYVKELPDKLFECLYPNCNKVFKRRYNIRSHIQTHLQDRPYSCDFPGCTKAFVRNHDLIRHKISHNAKKYICPCGKRFNREDALMVHRSRMICTGGKKLEHSINKKLTSPKKSLLDSPHDTSPVKETIARDKDGSVLMKMEEQLRDDMRKHGLLDPPPSTAAHEQNSNRTLSNETDAL
# B3: Protein SSD1 (Saccharomyces cerevisiae), P24276 (parent)
# chain: B1 partner
# Variants of: B1
# Details: with ssd1_yeast SSD1, P24276
row,Variant,effect of a mutation on the interaction
1,Y687A,disrupting interaction strength

# Variants of: B2
# Details: with cbk1_yeast CBK1, P53894
row,Variant,effect of a mutation on the interaction
1,N277A,decreasing interaction strength
2,P286A,disrupting interaction strength
3,F285A,disrupting interaction strength
4,I272A,decreasing interaction strength
5,Y283A,disrupting interaction strength

# Variants of: B3
# Details: with cbk1_yeast CBK1, P53894
row,Variant,effect of a mutation on the interaction
1,F213A,disrupting interaction strength
2,F213W,disrupting interaction strength
3,F213Y,disrupting interaction strength
4,F211W,disrupting interaction strength
5,F211A,disrupting interaction strength
6,K212Q,disrupting interaction strength
7,K212D,disrupting interaction strength
8,K212F,disrupting interaction strength
9,K212M,disrupting interaction strength
10,K212T,disrupting interaction strength
11,K212A,disrupting interaction strength
12,K212S,disrupting interaction strength
13,P214A,disrupting interaction strength
